EC50 (read off the curve) and POS data for two molecules are collected here from patent US20230331821A1.

For orientation: EC50 (read off the curve) means the concentration needed to bring the measured effect to its halfway point. Read a high EC50 (read off the curve) as weaker potency.

Read-outs that look alike come from different tables or passages of the source.

Common to all, as to conditions: remark: other sources report otherwise
Assay [1] deals with T1, SARS-CoV-2 Spike (S) protein, strain BetaCoV/Wuhan-Hu-1/2019, full length (SARS-CoV-2 Wuhan-Hu-1), P0DTC2.
Assay [2] concerns the target T1, SARS-CoV-2 Spike (S) protein, strain …. The assay is described as follows: flow cytometry, ExpiCHO cells transfected with SARS-CoV-2 S; MFI (AF647).
Assay [3] shares this target. Kind of assay: flow cytometry, ExpiCHO cells expressing SARS-CoV-2 S; % positive cells. On the technique in general: Flow cytometry measures light scatter and fluorescence of single cells or particles in a stream.
Assay [4] has the same target. The source holds these as a separate data set.

B1: S306 (antibody)
heavy: QVQLVQSGAEVKKPGASVKVSCKASTYTFTSFGISWVRQAPGQGLEWMGWITTYSGDTNYAQKFQGRVTMTTDTSTNTAYMELRSLRSDDTAVYYCASDYFDSSGYYHSFDYWGQGTLVTVSS
light: EIVLTQSPDTLSLSPGERATLSCRASQSVSSYLAWYQQRPGQAPRLLIYDASKRATGIPARFSGSGSGTDFTLTISSLEPEDFAVYYCQQRSNWPPGCSFGQGTKVEIK
For B1, the results for the EC50 (read off the curve) in assay [1], in assay [2] and in assay [3] were 0.2 µg/mL, 0.2 µg/mL and 0.001 µg/mL, respectively.

B2: SARS-CoV-2 S306 mAb (B cell supernatant) (antibody, V domains shown)
VH: QVQLVQSGAEVKKPGASVKVSCKASTYTFTSFGISWVRQAPGQGLEWMGWITTYSGDTNYAQKFQGRVTMTTDTSTNTAYMELRSLRSDDTAVYYCASDYFDSSGYYHSFDYWGQGTLVTVSS
VL: EIVLTQSPDTLSLSPGERATLSCRASQSVSSYLAWYQQRPGQAPRLLIYDASKRATGIPARFSGSGSGTDFTLTISSLEPEDFAVYYCQQRSNWPPGCSFGQGTKVEIK
In assay [4], B2 had a POS of 57.6.
